Measurements taken from PMC6555819, “Comprehensive study of nuclear receptor DNA binding provides a revised framework for understanding receptor specificity”.
Positions count from the first letter of the chain named.

B1: NRC3_random_hg19_169_o1 (dsDNA)
DNA 1: GCCTTCCCTGCTGCTTTGTTTACCTAAGCAAGCCTGGCGATTGACAGCGTAGAATGAAGG
DNA 2: CCTTCATTCTACGCTGTCAATCGCCAGGCTTGCTTAGGTAAACAAAGCAGCAGGGAAGGC
B2: NRC3_wobSeed37_DR1_C6A_o1 (dsDNA)
DNA 1: GCCGTACAAGGTCAAAGGTCAGTGAAGAGATGACGGGCGATTGACAGCGTAGAATGAAGG
DNA 2: CCTTCATTCTACGCTGTCAATCGCCCGTCATCTCTTCACTGACCTTTGACCTTGTACGGC
B3: NRC3_wobSeed37_DR1_C6T_o1 (dsDNA)
DNA 1: B2 DNA 1 with A6T
DNA 2: B2 DNA 2 with T55A
B4: NRC3_wobSeed66_DR2_A8G_o1 (dsDNA)
DNA 1: GCAATACGGGGTCACTAGGCCAGAGTAGGTACGAATGCGATTGACAGCGTAGAATGAAGG
DNA 2: CCTTCATTCTACGCTGTCAATCGCATTCGTACCTACTCTGGCCTAGTGACCCCGTATTGC
B5: NRC3_wobSeed5_DR0_A14T_o1 (dsDNA)
DNA 1: GCCCTTACGGGTCTAGGTTATAGCACGGGTGGTACGGCGATTGACAGCGTAGAATGAAGG
DNA 2: CCTTCATTCTACGCTGTCAATCGCCGTACCACCCGTGCTATAACCTAGACCCGTAAGGGC
B6: NRC3_random_hg19_278_o1 (dsDNA)
DNA 1: GCGCTACTTGGGAGGCTGAGATGGTAGAATCACTTGGCGATTGACAGCGTAGAATGAAGG
DNA 2: CCTTCATTCTACGCTGTCAATCGCCAAGTGATTCTACCATCTCAGCCTCCCAAGTAGCGC
B7: NRC3_wobSeed49_DR2_A17G_o1 (dsDNA)
DNA 1: GCCAAACTAGGTCAAGGGGTCAAAGTCCGCTTCCCGGCGATTGACAGCGTAGAATGAAGG
DNA 2: CCTTCATTCTACGCTGTCAATCGCCGGGAAGCGGACTTTGACCCCTTGACCTAGTTTGGC
B8: NRC3_random_hg19_123_o1 (dsDNA)
DNA 1: GCGTGGAGAAAGTTCTGAGACTGAAGATGACTTTCCGCGATTGACAGCGTAGAATGAAGG
DNA 2: CCTTCATTCTACGCTGTCAATCGCGGAAAGTCATCTTCAGTCTCAGAACTTTCTCCACGC
B9: NRC3_random_hg19_68_o1 (dsDNA)
DNA 1: GCAGCAGTGAGGACCAATGGGCAGTCCAGGAGGAAAGCGATTGACAGCGTAGAATGAAGG
DNA 2: CCTTCATTCTACGCTGTCAATCGCTTTCCTCCTGGACTGCCCATTGGTCCTCACTGCTGC
B10: NRC3_wobSeed47_DR1_G20C_o1 (dsDNA)
DNA 1: GCGGAACGAGGGCAAAGTTCATAGCATCTGTCGACGGCGATTGACAGCGTAGAATGAAGG
DNA 2: CCTTCATTCTACGCTGTCAATCGCCGTCGACAGATGCTATGAACTTTGCCCTCGTTCCGC
B11: NRC3_wobSeed47_DR1_G12T_o1 (dsDNA)
DNA 1: B10 DNA 1 with G12T, C20G
DNA 2: B10 DNA 2 with G41C, C49A
B12: NRC3_wobSeed13_DR0_C7A_o1 (dsDNA)
DNA 1: GCCGTCAAAGGTCAAGGTCAGTGAAAGAGACTCGAAGCGATTGACAGCGTAGAATGAAGG
DNA 2: CCTTCATTCTACGCTGTCAATCGCTTCGAGTCTCTTTCACTGACCTTGACCTTTGACGGC
B13: NRC3_random_hg19_139_o1 (dsDNA)
DNA 1: GCAGGATCGCTTGAGTCCAGAGTTTGAGACCAGCCTGCGATTGACAGCGTAGAATGAAGG
DNA 2: CCTTCATTCTACGCTGTCAATCGCAGGCTGGTCTCAAACTCTGGACTCAAGCGATCCTGC
B14: NRC3_random_hg19_106_o1 (dsDNA)
DNA 1: GCAAGGAATGTAATCTAACTCTGTATTCAAAGAAGAGCGATTGACAGCGTAGAATGAAGG
DNA 2: CCTTCATTCTACGCTGTCAATCGCTCTTCTTTGAATACAGAGTTAGATTACATTCCTTGC
B15: NRC3_random_hg19_479_o1 (dsDNA)
DNA 1: GCAAGTAAACAGCCCTCTAGCTTGGGTGGAAATGTGGCGATTGACAGCGTAGAATGAAGG
DNA 2: CCTTCATTCTACGCTGTCAATCGCCACATTTCCACCCAAGCTAGAGGGCTGTTTACTTGC
B16: NRC3_wobSeed46_DR1_C6A_o1 (dsDNA)
DNA 1: GCTTAACAAGGTGAAAGGTCGTTGATGCACGCCTTGGCGATTGACAGCGTAGAATGAAGG
DNA 2: CCTTCATTCTACGCTGTCAATCGCCAAGGCGTGCATCAACGACCTTTCACCTTGTTAAGC
B17: NRC3_random_hg19_499_o1 (dsDNA)
DNA 1: GCCATGTGGACTTCATTCGACCCAGCTGAGAAGACTGCGATTGACAGCGTAGAATGAAGG
DNA 2: CCTTCATTCTACGCTGTCAATCGCAGTCTTCTCAGCTGGGTCGAATGAAGTCCACATGGC
B18: NRC3_random_hg19_207_o1 (dsDNA)
DNA 1: GCGCAAAGGCTGCGGTGCAATCCTGCATTCTTGTTCGCGATTGACAGCGTAGAATGAAGG
DNA 2: CCTTCATTCTACGCTGTCAATCGCGAACAAGAATGCAGGATTGCACCGCAGCCTTTGCGC
B19: NRC3_random_hg19_189_o1 (dsDNA)
DNA 1: GCATCTGCCTTGCTCTTTCTACCTTTCAGTGTCTTTGCGATTGACAGCGTAGAATGAAGG
DNA 2: CCTTCATTCTACGCTGTCAATCGCAAAGACACTGAAAGGTAGAAAGAGCAAGGCAGATGC
B20: NRC3_random_hg19_293_o1 (dsDNA)
DNA 1: GCGGAGAGGTCTTAGGATGCATTGGAGGCACAGTGTGCGATTGACAGCGTAGAATGAAGG
DNA 2: CCTTCATTCTACGCTGTCAATCGCACACTGTGCCTCCAATGCATCCTAAGACCTCTCCGC
B21: NRC3_wobSeed69_DR2_C6A_o1 (dsDNA)
DNA 1: GCAGTAAAAGTTCACTAGGTAACGTAAGATTCAGCTGCGATTGACAGCGTAGAATGAAGG
DNA 2: CCTTCATTCTACGCTGTCAATCGCAGCTGAATCTTACGTTACCTAGTGAACTTTTACTGC
B22: NRC3_wobSeed69_DR2_T11G_o1 (dsDNA)
DNA 1: B21 DNA 1 with A6C, T11G
DNA 2: B21 DNA 2 with A50C, T55G

Target: PPARg:RXRa (Homo sapiens, UniProt P37231;P19793 full;full)
Sequence (P37231 29-505, chain 1 of 2): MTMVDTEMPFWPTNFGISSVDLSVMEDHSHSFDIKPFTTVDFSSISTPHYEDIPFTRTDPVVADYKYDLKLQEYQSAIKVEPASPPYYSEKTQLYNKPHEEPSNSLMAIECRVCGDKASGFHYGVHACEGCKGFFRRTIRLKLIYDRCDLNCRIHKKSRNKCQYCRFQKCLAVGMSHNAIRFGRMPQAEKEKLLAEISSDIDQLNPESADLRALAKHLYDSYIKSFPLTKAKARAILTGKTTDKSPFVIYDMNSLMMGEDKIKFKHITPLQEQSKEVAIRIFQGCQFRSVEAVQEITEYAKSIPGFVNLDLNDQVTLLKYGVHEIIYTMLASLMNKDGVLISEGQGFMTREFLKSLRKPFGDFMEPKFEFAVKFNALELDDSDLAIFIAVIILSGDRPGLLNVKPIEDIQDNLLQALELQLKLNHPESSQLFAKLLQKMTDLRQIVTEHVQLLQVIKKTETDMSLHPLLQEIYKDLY
Sequence (P19793 whole entry, chain 2 of 2): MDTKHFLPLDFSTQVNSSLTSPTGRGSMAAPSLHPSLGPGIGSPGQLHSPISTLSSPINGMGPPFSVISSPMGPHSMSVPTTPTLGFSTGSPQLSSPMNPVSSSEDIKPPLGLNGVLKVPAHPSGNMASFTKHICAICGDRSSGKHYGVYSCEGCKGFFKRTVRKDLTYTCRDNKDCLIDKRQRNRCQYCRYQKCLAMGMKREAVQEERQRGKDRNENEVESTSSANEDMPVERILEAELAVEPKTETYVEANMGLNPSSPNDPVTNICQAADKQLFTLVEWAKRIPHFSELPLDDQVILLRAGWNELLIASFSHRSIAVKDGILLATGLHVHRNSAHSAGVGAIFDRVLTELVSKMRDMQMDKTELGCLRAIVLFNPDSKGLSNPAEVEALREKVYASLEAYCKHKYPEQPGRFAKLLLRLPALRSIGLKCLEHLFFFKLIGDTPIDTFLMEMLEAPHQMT
Assay: no ligand; PBM; 180 nM : 90 nM RXRa; PBS pH 7.4, 2% milk, 0.02% Triton X-100, 1 mM DTT, BSA, 0.4 mg/ml salmon testes DNA
Details: tags: His kept;His cleaved; copies: 1;1; label: surface-attached array probe

Binder | binding signal
B1 | -1.09 PBM z-score against 500 random probes
B2 | 12.3 PBM z-score against 500 random probes
B3 | 11.8 PBM z-score against 500 random probes
B4 | 10.2 PBM z-score against 500 random probes
B5 | 0.3 PBM z-score against 500 random probes
B6 | -0.02 PBM z-score against 500 random probes
B7 | 10.8 PBM z-score against 500 random probes
B8 | 0.25 PBM z-score against 500 random probes
B9 | -0.26 PBM z-score against 500 random probes
B10 | 10.2 PBM z-score against 500 random probes
B11 | 10.5 PBM z-score against 500 random probes
B12 | 9.87 PBM z-score against 500 random probes
B13 | -0.51 PBM z-score against 500 random probes
B14 | 0.5 PBM z-score against 500 random probes
B15 | -0.63 PBM z-score against 500 random probes
B16 | 10.4 PBM z-score against 500 random probes
B17 | 0.35 PBM z-score against 500 random probes
B18 | -0.83 PBM z-score against 500 random probes
B19 | -1.57 PBM z-score against 500 random probes
B20 | 0.47 PBM z-score against 500 random probes
B21 | 5.13 PBM z-score against 500 random probes
B22 | 10.2 PBM z-score against 500 random probes

Target: LXRb:RXRa (Homo sapiens, UniProt P55055;P19793 full;full)
Sequence (P55055 whole entry, chain 1 of 2): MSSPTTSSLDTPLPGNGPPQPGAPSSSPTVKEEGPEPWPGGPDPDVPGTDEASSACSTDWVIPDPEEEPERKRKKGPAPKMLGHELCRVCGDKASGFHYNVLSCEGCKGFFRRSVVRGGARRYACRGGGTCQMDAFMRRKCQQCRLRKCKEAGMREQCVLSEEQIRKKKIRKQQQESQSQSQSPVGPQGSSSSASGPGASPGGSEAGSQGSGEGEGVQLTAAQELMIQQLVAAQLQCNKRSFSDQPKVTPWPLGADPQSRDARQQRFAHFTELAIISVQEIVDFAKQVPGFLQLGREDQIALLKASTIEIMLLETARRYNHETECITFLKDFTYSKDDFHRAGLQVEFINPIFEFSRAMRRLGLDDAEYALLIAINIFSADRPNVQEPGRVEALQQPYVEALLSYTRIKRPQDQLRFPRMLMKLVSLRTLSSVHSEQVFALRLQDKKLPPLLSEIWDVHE
Sequence (P19793 whole entry, chain 2 of 2): as the sequence (P19793 whole entry, chain 2 of 2) above
Assay: no ligand; PBM; 270 nM : 90 nM RXRa; PBS pH 7.4, 2% milk, 0.02% Triton X-100, 1 mM DTT, BSA, 0.4 mg/ml salmon testes DNA
Details: tags: His kept;His cleaved; copies: 1;1; label: surface-attached array probe
Outline: (§1)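 On custom Agilent 4×180K arrays, double-stranded probes with 34-nt variable regions carried direct-repeat seeds, single-nucleotide variants, half-site ablations or random human genomic background. Ligand-free nuclear receptor dimers were applied for 1 h, and binding was read with antibodies against each partner (one per run). Binding z-scores come from regression-normalized fluorescence, with the random background probes as reference.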

Binder | binding signal
B4 | 6.54 PBM z-score against 500 random probes
B8 | 0.02 PBM z-score against 500 random probes
B10 | 3.56 PBM z-score against 500 random probes
B12 | 6.31 PBM z-score against 500 random probes
B15 | -0.48 PBM z-score against 500 random probes
B17 | 0.14 PBM z-score against 500 random probes

Target: LXRa:RXRa (Homo sapiens, UniProt Q13133;P19793 full;full)
Sequence (Q13133 whole entry, chain 1 of 2): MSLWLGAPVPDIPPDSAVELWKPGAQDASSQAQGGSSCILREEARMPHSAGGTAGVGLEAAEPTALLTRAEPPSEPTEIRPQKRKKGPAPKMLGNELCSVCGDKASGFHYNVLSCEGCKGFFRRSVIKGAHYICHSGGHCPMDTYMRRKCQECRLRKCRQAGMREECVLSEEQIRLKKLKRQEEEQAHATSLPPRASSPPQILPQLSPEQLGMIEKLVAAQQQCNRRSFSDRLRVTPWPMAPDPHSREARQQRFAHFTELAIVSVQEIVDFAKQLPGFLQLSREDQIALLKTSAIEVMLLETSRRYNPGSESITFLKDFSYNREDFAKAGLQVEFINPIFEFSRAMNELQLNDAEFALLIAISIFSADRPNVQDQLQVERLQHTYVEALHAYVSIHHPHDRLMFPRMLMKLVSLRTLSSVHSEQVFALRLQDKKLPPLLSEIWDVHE
Sequence (P19793 whole entry, chain 2 of 2): as the sequence (P19793 whole entry, chain 2 of 2) above
Assay: as above
Details: tags: His kept;His cleaved; copies: 1;1; label: surface-attached array probe
Outline: as §1

Binder | binding signal
B1 | -0.21 PBM z-score against 500 random probes
B2 | 7.38 PBM z-score against 500 random probes
B3 | 7.33 PBM z-score against 500 random probes
B9 | -0.72 PBM z-score against 500 random probes
B12 | 7.37 PBM z-score against 500 random probes
B14 | -0.1 PBM z-score against 500 random probes
B17 | 0.09 PBM z-score against 500 random probes

Target: VDR:RXRa (Homo sapiens, UniProt P11473;P19793 full;full)
Sequence (P11473 whole entry, chain 1 of 2): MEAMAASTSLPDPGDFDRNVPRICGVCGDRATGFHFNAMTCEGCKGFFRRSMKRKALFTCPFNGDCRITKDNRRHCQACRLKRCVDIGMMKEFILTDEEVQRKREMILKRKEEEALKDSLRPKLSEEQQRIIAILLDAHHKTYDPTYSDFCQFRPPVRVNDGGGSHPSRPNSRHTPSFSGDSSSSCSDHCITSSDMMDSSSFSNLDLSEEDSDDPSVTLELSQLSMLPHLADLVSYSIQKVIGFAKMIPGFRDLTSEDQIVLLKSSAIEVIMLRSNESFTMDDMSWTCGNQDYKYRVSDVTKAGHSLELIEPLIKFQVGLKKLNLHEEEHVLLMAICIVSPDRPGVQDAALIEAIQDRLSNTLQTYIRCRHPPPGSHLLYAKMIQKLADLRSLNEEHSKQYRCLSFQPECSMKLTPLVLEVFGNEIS
Sequence (P19793 whole entry, chain 2 of 2): as the sequence (P19793 whole entry, chain 2 of 2) above
Assay: as above
Details: tags: His kept;His cleaved; copies: 1;1; label: surface-attached array probe
Outline: as §1

Binder | binding signal
B7 | 6.63 PBM z-score against 500 random probes
B16 | 3.31 PBM z-score against 500 random probes
B18 | -0.78 PBM z-score against 500 random probes
B20 | 0.06 PBM z-score against 500 random probes
B21 | 3.55 PBM z-score against 500 random probes

Target: FXR:RXRa (Homo sapiens, UniProt Q96RI1;P19793 full;full)
Sequence (Q96RI1 whole entry, chain 1 of 2): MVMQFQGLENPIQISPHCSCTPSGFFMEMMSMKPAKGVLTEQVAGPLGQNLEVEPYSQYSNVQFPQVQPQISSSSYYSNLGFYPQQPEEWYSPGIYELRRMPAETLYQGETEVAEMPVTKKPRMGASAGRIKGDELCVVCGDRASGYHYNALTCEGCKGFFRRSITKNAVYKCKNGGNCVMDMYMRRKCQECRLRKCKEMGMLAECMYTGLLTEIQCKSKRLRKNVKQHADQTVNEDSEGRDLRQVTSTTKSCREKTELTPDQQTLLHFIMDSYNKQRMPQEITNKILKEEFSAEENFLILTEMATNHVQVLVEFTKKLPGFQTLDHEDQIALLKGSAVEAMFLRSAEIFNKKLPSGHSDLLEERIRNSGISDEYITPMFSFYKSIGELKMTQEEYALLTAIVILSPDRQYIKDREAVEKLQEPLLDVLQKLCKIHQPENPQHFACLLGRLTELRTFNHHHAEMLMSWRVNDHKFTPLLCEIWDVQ
Sequence (P19793 whole entry, chain 2 of 2): as the sequence (P19793 whole entry, chain 2 of 2) above
Assay: as above
Details: tags: His kept;His cleaved; copies: 1;1; label: surface-attached array probe
Outline: as §1

Binder | binding signal
B2 | 8.85 PBM z-score against 500 random probes
B3 | 8.83 PBM z-score against 500 random probes
B4 | 7.97 PBM z-score against 500 random probes
B11 | 8.06 PBM z-score against 500 random probes
B12 | 9.06 PBM z-score against 500 random probes
B18 | -0.69 PBM z-score against 500 random probes

Target: RARg:RXRa (Homo sapiens, UniProt P13631;P19793 full;full)
Sequence (P13631 whole entry, chain 1 of 2): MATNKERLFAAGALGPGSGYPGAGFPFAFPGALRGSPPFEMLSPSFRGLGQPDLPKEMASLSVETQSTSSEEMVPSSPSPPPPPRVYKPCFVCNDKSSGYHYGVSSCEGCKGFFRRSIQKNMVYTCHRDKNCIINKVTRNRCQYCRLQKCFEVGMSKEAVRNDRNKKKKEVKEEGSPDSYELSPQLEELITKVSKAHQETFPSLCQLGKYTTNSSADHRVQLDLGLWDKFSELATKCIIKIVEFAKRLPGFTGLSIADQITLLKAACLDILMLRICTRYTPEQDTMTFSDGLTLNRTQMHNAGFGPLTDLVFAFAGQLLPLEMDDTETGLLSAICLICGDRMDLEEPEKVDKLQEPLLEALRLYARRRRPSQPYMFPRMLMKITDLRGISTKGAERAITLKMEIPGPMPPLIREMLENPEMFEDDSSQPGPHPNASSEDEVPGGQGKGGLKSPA
Sequence (P19793 whole entry, chain 2 of 2): as the sequence (P19793 whole entry, chain 2 of 2) above
Assay: as above
Details: tags: His kept;His cleaved; copies: 1;1; label: surface-attached array probe
Outline: as §1

Binder | binding signal
B5 | 0.05 PBM z-score against 500 random probes
B12 | 8.25 PBM z-score against 500 random probes
B22 | 7.59 PBM z-score against 500 random probes

Target: PPARa:RXRa (Homo sapiens, UniProt Q07869;P19793 full;full)
Sequence (Q07869 whole entry, chain 1 of 2): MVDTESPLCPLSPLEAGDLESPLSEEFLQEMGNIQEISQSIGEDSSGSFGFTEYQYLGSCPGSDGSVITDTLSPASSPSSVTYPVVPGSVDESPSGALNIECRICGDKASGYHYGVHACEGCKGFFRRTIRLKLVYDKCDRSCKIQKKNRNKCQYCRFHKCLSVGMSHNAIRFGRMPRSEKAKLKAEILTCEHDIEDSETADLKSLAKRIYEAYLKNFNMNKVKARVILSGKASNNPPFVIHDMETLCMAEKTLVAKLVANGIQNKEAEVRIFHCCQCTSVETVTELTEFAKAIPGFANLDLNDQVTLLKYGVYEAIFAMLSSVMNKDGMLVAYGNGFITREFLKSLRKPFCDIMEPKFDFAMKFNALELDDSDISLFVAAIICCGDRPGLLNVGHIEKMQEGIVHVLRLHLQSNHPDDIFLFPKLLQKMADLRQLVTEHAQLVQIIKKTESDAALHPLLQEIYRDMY
Sequence (P19793 whole entry, chain 2 of 2): as the sequence (P19793 whole entry, chain 2 of 2) above
Assay: as above
Details: tags: GST kept;His cleaved; copies: 1;1; label: surface-attached array probe
Outline: as §1

Binder | binding signal
B4 | 7.26 PBM z-score against 500 random probes
B11 | 6.61 PBM z-score against 500 random probes
B12 | 6.81 PBM z-score against 500 random probes
B13 | -1.12 PBM z-score against 500 random probes

Target: RARb:RXRa (Homo sapiens, UniProt P10826;P19793 full;full)
Sequence (P10826 whole entry, chain 1 of 2): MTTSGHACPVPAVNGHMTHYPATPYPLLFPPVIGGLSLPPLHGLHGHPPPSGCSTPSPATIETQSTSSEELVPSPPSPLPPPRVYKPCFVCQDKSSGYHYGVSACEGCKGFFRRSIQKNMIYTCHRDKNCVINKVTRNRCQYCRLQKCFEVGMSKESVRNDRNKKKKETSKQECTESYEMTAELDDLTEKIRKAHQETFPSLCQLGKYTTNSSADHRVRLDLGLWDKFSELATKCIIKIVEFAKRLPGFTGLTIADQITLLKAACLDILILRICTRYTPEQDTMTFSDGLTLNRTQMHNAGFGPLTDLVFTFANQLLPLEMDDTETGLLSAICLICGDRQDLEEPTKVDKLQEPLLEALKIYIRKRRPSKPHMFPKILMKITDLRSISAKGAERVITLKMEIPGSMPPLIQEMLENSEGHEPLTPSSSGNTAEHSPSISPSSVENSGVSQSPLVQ
Sequence (P19793 whole entry, chain 2 of 2): as the sequence (P19793 whole entry, chain 2 of 2) above
Assay: as above
Details: tags: His kept;His cleaved; copies: 1;1; label: surface-attached array probe
Outline: as §1

Binder | binding signal
B1 | -0.32 PBM z-score against 500 random probes
B12 | 6.38 PBM z-score against 500 random probes
B22 | 5.88 PBM z-score against 500 random probes

Target: RXRa (Homo sapiens, UniProt P19793)
Sequence (P19793 whole entry): as the sequence (P19793 whole entry, chain 2 of 2) above
Assay: no ligand; PBM; 180 nM; PBS pH 7.4, 2% milk, 0.02% Triton X-100, 1 mM DTT, BSA, 0.4 mg/ml salmon testes DNA
Details: tags: His cleaved; chain copies: 2; label: surface-attached array probe

Binder | binding signal
B4 | 8.8 PBM z-score against 500 random probes
B5 | 0.15 PBM z-score against 500 random probes
B6 | -0.89 PBM z-score against 500 random probes
B11 | 8.54 PBM z-score against 500 random probes
B12 | 8.68 PBM z-score against 500 random probes
B13 | -0.68 PBM z-score against 500 random probes
B19 | -0.72 PBM z-score against 500 random probes
B22 | 7.84 PBM z-score against 500 random probes
